Columns and labels:
Assay in all cases: SPR, mAb captured, C2 mutant analyte;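 further: Anti-C2 mAbs captured on goat anti-human IgG Biacore CM5 chips, alanine or serine C2 surface mutants flowed over at 37 °C, double-referenced sensorgrams fitted to a 1:1 binding model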
human C2 R519A = target: T1, human C2 R519A (human, UniProt P06681 21-752)
T1 sequence: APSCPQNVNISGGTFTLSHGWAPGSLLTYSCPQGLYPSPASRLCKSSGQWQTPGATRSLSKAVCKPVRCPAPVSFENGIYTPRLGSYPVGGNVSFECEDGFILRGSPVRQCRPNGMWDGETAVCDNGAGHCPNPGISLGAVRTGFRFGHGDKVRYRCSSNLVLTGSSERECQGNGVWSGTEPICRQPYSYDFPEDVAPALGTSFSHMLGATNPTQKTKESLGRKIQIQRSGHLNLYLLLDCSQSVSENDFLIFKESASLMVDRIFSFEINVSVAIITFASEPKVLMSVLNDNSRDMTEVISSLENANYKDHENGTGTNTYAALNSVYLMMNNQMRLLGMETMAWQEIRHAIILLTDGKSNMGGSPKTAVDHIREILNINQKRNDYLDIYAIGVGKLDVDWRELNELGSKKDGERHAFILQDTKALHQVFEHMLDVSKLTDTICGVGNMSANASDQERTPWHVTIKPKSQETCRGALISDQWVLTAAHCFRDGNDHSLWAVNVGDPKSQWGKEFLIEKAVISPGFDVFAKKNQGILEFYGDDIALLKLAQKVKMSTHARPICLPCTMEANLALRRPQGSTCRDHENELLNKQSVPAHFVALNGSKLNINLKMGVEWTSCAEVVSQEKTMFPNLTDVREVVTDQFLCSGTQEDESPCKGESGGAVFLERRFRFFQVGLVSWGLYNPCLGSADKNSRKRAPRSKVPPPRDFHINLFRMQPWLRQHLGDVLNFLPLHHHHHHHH

human C2 K457A = target: T2, human C2 K457A (human, UniProt P06681 21-752)
T2 sequence: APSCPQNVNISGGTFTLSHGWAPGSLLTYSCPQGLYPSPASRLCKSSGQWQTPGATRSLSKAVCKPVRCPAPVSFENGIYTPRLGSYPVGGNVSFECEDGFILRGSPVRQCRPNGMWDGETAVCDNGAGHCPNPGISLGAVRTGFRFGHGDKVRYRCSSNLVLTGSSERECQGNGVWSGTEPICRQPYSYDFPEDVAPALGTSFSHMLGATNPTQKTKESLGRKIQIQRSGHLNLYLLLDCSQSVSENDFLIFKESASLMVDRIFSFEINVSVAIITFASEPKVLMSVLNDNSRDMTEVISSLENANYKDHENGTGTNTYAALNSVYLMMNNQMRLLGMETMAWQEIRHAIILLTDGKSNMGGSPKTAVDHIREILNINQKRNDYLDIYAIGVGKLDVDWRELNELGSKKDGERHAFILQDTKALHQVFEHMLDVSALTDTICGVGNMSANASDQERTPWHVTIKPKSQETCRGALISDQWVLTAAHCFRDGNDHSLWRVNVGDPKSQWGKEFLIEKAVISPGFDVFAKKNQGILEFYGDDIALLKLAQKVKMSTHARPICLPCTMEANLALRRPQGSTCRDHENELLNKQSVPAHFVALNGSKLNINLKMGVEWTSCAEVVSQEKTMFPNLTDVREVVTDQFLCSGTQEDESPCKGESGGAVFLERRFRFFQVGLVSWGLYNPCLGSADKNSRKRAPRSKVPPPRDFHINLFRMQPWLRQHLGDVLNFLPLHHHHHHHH

human C2 E324A = target: T3, human C2 E324A (human, UniProt P06681 21-752)
T3 sequence: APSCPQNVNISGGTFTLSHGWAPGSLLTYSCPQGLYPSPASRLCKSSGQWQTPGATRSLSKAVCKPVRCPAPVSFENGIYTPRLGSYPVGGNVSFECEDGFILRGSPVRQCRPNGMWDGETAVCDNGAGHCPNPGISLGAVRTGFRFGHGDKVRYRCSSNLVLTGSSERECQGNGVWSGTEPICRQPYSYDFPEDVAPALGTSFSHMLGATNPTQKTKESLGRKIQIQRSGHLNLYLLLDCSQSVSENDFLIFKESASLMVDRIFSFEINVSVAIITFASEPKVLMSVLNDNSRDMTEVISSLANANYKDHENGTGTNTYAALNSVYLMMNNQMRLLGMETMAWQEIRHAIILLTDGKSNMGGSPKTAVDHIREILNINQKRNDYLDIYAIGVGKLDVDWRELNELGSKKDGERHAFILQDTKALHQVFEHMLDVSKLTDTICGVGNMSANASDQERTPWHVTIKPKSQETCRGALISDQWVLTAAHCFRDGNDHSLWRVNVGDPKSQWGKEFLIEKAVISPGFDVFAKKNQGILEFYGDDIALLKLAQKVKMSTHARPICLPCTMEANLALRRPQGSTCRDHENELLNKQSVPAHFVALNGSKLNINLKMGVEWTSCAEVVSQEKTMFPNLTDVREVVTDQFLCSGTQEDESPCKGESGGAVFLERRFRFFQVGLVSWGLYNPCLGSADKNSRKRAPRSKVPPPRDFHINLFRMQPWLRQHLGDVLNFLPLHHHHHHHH

human C2 K244A = target: T4, human C2 K244A (human, UniProt P06681 21-752)
T4 sequence: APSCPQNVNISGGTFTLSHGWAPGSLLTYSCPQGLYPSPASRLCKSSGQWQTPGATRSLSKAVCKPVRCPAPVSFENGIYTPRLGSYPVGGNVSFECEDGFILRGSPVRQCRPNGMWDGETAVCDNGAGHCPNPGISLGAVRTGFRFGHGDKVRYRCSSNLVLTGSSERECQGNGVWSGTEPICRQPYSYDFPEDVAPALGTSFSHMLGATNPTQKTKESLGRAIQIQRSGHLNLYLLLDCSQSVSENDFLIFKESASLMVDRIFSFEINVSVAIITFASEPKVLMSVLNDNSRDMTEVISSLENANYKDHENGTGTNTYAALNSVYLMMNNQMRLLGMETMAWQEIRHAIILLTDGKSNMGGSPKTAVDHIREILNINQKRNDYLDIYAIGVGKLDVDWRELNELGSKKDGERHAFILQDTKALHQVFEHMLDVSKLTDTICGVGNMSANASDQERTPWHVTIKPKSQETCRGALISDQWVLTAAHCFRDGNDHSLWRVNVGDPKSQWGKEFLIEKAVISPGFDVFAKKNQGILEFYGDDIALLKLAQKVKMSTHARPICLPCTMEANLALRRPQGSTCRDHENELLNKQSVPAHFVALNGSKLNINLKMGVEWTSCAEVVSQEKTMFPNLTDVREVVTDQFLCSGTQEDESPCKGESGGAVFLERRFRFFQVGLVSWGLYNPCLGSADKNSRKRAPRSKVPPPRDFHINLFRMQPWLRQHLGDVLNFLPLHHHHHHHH

- Kd (human C2 R519A): 40 nM
- Kd (human C2 K457A): 41.8 nM
- Kd (human C2 E324A): 27.8 nM
- Kd (human C2 K244A): 97.1 nM
B1: RF16-214 (antibody, V domains shown)
VH: EVQLLESGGGLVQPGGSLRLSCAASGFTFSWYQMMWVRQAPGKGLEWVSRIYPSGGGTAYADSVKGRFTISRDNSKNTLYLQMNSLRAEDTAVYYCARDAGYGDNWGQGTLVTVSS
VL: QSALTQPPSVSVSPGQTASITCSGDKLGEKYASWYQQKAGQSPVMVIYQDRKRPSGIPERFSGSNSGNTATLTISGTQAMDEADYYCQAWDTRAVVFGGGTKLTVLG
